Data: patent US20060228334A1

Each substance was assayed against coxsackievirus-adenovirus receptor (CAR) on 293 cells (human) (UniProt P78310) (assay: cell-based or functional assay).
UniProt P78310, sequence (P78310 20-365): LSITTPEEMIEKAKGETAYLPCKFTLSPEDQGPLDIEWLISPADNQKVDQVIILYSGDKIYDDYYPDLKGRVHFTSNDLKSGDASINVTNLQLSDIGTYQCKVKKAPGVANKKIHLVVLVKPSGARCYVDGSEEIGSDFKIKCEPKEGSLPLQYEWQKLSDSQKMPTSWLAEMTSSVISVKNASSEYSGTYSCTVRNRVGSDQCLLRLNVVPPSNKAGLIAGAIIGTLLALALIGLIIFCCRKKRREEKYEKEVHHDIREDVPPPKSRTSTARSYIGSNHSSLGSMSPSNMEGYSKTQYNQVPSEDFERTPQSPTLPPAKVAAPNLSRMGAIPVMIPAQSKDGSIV
“Ad5 fiber Lys506Gln/His508Lys (virus Ad-LacZ/Fb-Lys506Q/His508Lys) (from UniProt P11818 1-581)” gave an IU/Particle (infectious units titrated on 293 cells per particle) of 0.000769 IU/Particle.
Substance “wild-type Ad5 fiber protein (as carried by the Ad-LacZ virus) (from UniProt P11818 1-581)” has an IU/Particle (infectious units titrated on 293 cells per particle) of 0.025 IU/Particle and an inhibition of infection of 293 cells by 10 ug/ml recombinant Ad5 knob (FIG. 2) of 90%.
“Ad5 fiber Ala406Lys (virus Ad-LacZ/Fb-Ala406Lys) (from UniProt P11818 1-581)” was tested, and the IU/Particle (infectious units titrated on 293 cells per particle) was 0.000125 IU/Particle.
For “Ad5 fiber Ser408Glu (virus Ad-LacZ/Fb-S408E) (from UniProt P11818 1-581)”, the IU/Particle (infectious units titrated on 293 cells per particle) was 9.54e-05 IU/Particle.
In the case of “Ad5 fiber Thr404Gly (virus Ad-LacZ/Fb-Thr404gly) (from UniProt P11818 1-581)”, the IU/Particle (infectious units titrated on 293 cells per particle) is reported as 8.33e-05 IU/Particle.
“Ad5 fiber Val452Lys (virus Ad-LacZ/Fb-Val452Lys) (from UniProt P11818 1-581)” was tested, and the IU/Particle (infectious units titrated on 293 cells per particle) was 0.002 IU/Particle.
In the case of “Ad5 fiber Ser408Glu and Ser555Lys (virus Ad-LacZ/Fb-S408E/S555K) (from UniProt P11818 1-581)”, the IU/Particle (infectious units titrated on 293 cells per particle) is reported as 6.38e-05 IU/Particle.
“Ad5 fiber Ser408Glu and Val452Lys (virus Ad-LacZ/Fb-S408E/V452K) (from UniProt P11818 1-581)” gave an IU/Particle (infectious units titrated on 293 cells per particle) of 9.57e-05 IU/Particle.
With “Ad5 fiber Ser555Lys (virus Ad-LacZ/Fb-Ser555Lys) (from UniProt P11818 1-581)” the IU/Particle (infectious units titrated on 293 cells per particle) was 0.025 IU/Particle.
“Ad5 fiber Ser408Glu and Lys506Gln/His508Lys (virus Ad-LacZ/Fb-S408E/K506Q/H508K) (from UniProt P11818 1-581)” was tested, and the IU/Particle (infectious units titrated on 293 cells per particle) was 0.00025 IU/Particle.
